From patent publication US20220204643A1 (published 2022)

Legend:
[1] = target: T1, PNMA family member 5, transcript variant 2 (human, UniProt Q96PV4 1-448)
T1 construct: HuProt array protein, full-length recombinant from yeast; also called PNMA5

[2] = target: T2, kelch like ECH associated protein 1, transcript variant 1 (human, UniProt Q14145 1-624)
T2 construct: HuProt array protein, full-length recombinant from yeast; also called KEAP1

[3] = target: T3, endosome associated trafficking regulator 1, transcript variant 2 (human, UniProt Q96C92 59-435)
T3 construct: HuProt array protein, full-length recombinant from yeast; also called SDCCAG3
T3 chain: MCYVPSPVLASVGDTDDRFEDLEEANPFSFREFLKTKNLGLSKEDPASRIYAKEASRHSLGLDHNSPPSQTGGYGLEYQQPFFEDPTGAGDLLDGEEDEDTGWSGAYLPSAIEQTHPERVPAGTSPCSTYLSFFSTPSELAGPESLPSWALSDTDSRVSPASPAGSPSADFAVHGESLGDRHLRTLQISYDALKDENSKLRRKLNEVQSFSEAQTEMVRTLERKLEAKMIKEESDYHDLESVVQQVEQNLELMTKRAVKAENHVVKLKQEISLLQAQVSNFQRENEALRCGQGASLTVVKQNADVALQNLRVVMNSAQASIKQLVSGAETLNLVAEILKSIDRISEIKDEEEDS

DEAD-box helicase 53 = target: T4, DEAD-box helicase 53 (human, UniProt Q86TM3 1-631)
T4 construct: also called DDX53
T4 sequence (Q86TM3 other isoform, or with tags, fused parts or gaps limits assumed): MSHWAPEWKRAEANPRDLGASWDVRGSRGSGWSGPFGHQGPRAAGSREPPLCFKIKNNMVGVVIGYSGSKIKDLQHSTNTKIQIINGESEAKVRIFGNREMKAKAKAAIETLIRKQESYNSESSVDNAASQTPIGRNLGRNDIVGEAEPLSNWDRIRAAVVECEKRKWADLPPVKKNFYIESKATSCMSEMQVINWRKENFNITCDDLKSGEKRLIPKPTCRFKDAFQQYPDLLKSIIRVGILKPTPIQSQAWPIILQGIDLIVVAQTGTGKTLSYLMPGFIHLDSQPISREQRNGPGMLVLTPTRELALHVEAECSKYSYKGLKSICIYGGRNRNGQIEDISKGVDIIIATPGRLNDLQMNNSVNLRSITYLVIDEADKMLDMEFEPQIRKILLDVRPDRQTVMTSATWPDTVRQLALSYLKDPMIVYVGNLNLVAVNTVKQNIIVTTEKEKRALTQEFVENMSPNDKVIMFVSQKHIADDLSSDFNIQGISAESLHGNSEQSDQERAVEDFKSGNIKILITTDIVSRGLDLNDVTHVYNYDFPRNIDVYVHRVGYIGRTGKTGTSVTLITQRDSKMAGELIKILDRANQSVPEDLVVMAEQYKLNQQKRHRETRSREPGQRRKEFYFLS

T2 sequence (Q14145 whole entry, change not shown): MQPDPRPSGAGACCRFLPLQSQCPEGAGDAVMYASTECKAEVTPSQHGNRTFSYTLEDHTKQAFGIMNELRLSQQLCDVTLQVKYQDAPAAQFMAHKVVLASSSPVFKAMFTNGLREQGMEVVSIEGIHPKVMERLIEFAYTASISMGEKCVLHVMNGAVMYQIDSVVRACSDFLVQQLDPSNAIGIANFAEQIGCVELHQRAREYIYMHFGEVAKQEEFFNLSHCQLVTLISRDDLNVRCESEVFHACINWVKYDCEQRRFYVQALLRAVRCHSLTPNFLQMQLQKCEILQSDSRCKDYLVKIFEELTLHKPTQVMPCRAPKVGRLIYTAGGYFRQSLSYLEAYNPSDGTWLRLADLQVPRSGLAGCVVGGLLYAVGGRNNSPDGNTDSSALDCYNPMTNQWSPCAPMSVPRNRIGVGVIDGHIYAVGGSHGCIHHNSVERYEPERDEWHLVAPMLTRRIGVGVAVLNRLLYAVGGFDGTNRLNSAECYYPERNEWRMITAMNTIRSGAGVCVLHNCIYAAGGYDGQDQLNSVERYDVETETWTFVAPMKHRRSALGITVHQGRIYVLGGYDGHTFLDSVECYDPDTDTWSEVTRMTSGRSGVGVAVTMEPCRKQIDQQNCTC
T1 sequence (Q96PV4 other isoform, or with tags, fused parts or gaps mutant limits assumed): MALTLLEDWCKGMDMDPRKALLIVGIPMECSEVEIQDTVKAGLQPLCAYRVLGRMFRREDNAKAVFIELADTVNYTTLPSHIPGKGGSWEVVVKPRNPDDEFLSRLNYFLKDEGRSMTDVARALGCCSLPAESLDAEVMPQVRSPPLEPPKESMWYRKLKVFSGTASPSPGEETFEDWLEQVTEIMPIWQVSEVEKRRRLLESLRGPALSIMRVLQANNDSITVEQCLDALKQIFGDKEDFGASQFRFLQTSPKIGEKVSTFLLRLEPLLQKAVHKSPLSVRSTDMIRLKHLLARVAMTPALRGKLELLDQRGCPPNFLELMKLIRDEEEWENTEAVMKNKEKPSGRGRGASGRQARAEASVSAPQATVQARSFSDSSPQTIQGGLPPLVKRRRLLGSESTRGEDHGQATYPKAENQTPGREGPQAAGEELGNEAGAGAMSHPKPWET

B1: TBRE1011 (antibody, V domains shown)
VH: PVLLQESGPGLVKPSETLSLTCTVSGDSMSFYYWTWIRQPPGKGLEWIGYIYYSGNRNYNPSLNSRVTISVDTSKNEVSLKLTSVTAADTAAYYCARGRGEMDVWGQGTTVTVSS
VL: QSVLTQPPSASGTPGQGVTISCSGTSANIGKNYVSWYQHLPGTAPRLLIYRIDQRPSGVPDRFSGSKSGTSASLAISGLRPEDEADYYCAAWDDSLSGPVFGGGTKLTVLG
notes: detected with anti-human IgG Fc
B1: binds [1].

B2: TBRE1052 (antibody, V domains shown)
VH: PVQLIQSGAEVRKPGASVKVSCKVSGYTLSELSLHWVRQAPGKGLEWMGTFDPEDGETVYAQKFQGRVTVTEDTSTDTAYIDLSSLKSEDTAVYYCATDGPLHTSGLDYWGQGTLVTVSS
VL: EIVLTQSPATLSLSPGERATLSCRASQSISSNLAWYQQKPGQAPRLLIYDASNRATGIPARFSGSGSGTDFTLTISSLEPEDFAVYYCQQHSNWPELTFGGGTKVEIKR
notes: as for B1
B2: binds [2].

B3: TCOL1007 (antibody, V domains shown)
VH: PVQLVESGGGVVQPGRSLRLSCAASGFTFSNYGMHWVRQAPGKGLEWVAVISDDGNDKDNADSVKGRFTISRDNSKNTLYLRMNSLRREDTAVYYCARDGFDYWGQGTLVTVSS
VL: DIVMTQTPLSMPVTPGEPASISCRSSQSLLDSDDGKTYLDWYLQKPGQSPQLLIYTVSYRASGVPDRFSGSGSGTDFTLKISRVEAEDVGVYYCMQRIEFPFTFGPGTKVDIKR
notes: as for B1
B3: binds [2].

B4: THNS1008 (antibody, V domains shown)
VH: QVQLQESGPGLVKPSQTLSLTCAVSGGSISSGGYPWSWIRQPPGKGLEWIGYISYSGSTDYNPSLKSRVTISLDTSSNQFSLNLSSLTAADTAVYYCARGAAFYYGMDVWGQGTTVTVSS
VL: DIQMTQSPSSLSASVGDRVTITCRASQSISTYLNWYQQKPGKAPKLLIYVASSLQSGVPSRFSGSGSGTDFTLTISGLQPEDFATYYCQQSYSTPYTFGQGTKLEIKR
notes: detected with anti-human IgG Fc; also called THINS1008
B4: binds [2].

B5: THNS1009 (antibody, V domains shown)
VH: QVQLQESGPGLVKPSETLSLTCTVSGGSISIYYWSWIRQPPGKGLEWIGYIYYSGSTNYNPSLKSRVTISVDTSKNQFSLKLRSVTAADTAVYYCARDTYGDPRGDYFDYWGQGTLVTVSS
VL: DIQMTQSPSTLSASVGDRVTITCRASQRISNWLAWYQQTPGKAPKLLIYKASSLESGVPSRFSGSGSGTEFTLTISSLQPDDFATYYCQQYSSSSPRTFGQGTKVEIKR
notes: as for B1
B5: binds [1].

B6: TMEL1025 (antibody, V domains shown)
VH: EVQLMESGGGLVQPGGSLRLSCAASGLTFSIYSMNWVRQAPGKGLEWVSYISRGSSVIYHADSVKGRFTISRDDGKNLLYLQMNSLRDDDTAMYYCSSGGSTSMVGRYWGQGSLVTVSS
VL: DVVMTQSPLYLPVTLGQPASISCRASQSLVYSDGNTYLNWVHQRPGQSPRRLIYMVSQRGSGVPDRFSGSGSDTDFTLKISRVEAEDVGVYYCMQGTHWSAFGQGTKLEIKR
notes: as for B1
B6: binds [3].

B7: TMES1001 (antibody, V domains shown)
VH: QVQLVQSGAEVKKPGASVKVSCKASGYTFTSYYMYWVRQAPGQGLEWMGIINPGGGSTSYAQKFQGRVTMTRDTSTSTVYMELSSLRSEDTAVYYCARVFRYGMDVWGQGTTVTVSS
VL: EIVMTQSPATLSVSPGERATLSCRASQSVSSNLAWYQQKPGQAPRLLIYGASTRATGLPARFSGSGSGTEFTLTISSLQSEDFAVYYCQSRGTFGGGTKVEIK
notes: as for B1
B7: binds [3].

B8: TOVA1001 (antibody, V domains shown)
VH: HVQLVQSGSELKKPGASVKLSCKASGYTFTNYAMNWVRQAPGQGLEWMGWINTNTGNPTYAQGFTGRFVFSLDTSVSTAYLQISSLKAEDTALYYCARDRPGDYWGQGTLVTVSS
VL: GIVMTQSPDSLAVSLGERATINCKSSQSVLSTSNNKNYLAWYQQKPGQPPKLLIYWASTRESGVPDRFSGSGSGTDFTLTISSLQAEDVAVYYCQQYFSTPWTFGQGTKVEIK
B8: binds (DEAD-box helicase 53).

B9: TSAR1004 (antibody, V domains shown)
VH: QVQLQESGPGLVKPSETLSLTCSVSGDSFSDYYWSWTRQSPGKGLEWLGYMFYGGSTNYNPSLKSRLTMSVDTSKKHVYLKLSSVTAADTAVYYCAASGYGDHVAYWGQGTLVTVSS
VL: DIVMTQSPDSLAVSLGERATLNCKSSQSVLSSYNNKDYLAWFQQKPGQPPQLLFYWASTRKTGVPDRFSGSGSGTDFTLTISSLQTEDVAVYYCQQYYSTPYTFGQGTKLEIK
B9: binds (DEAD-box helicase 53).
